According to patent US20230322950A1:

Columns and labels:
[1] = molecular target: VH2VL1-CD8ATD-CD137CSD-CD3zSSD fusion
[2] = molecular target: VL1VH3-CD8ATD-CD137CSD-CD3zSSD fusion
[3] = molecular target: VH1VL1-CD8ATD-CD137CSD-CD3zSSD fusion
[4] = molecular target: VH2VL1-CD8ATD-CD137CSD-CD3zSSD fusion; remark: listed apart in the source
[5] = molecular target: VH3VL1-CD8ATD-CD137CSD-CD3zSSD fusion
[6] = molecular target: VL1VH3-CD8ATD-CD137CSD-CD3zSSD fusion; remark: listed apart in the source
[7] = molecular target: VH1VL1-CD8ATD-CD137CSD-CD3zSSD fusion; remark: listed apart in the source
[8] = molecular target: VH2VL1-CD8ATD-CD137CSD-CD3zSSD fusion; remark: listed apart in the source
[9] = molecular target: VH3VL1-CD8ATD-CD137CSD-CD3zSSD fusion; remark: listed apart in the source
[10] = molecular target: VL1VH3-CD8ATD-CD137CSD-CD3zSSD fusion; remark: listed apart in the source

Chain of VL1VH3-CD8ATD-CD137CSD-CD3zSSD fusion (chain, as listed by the source): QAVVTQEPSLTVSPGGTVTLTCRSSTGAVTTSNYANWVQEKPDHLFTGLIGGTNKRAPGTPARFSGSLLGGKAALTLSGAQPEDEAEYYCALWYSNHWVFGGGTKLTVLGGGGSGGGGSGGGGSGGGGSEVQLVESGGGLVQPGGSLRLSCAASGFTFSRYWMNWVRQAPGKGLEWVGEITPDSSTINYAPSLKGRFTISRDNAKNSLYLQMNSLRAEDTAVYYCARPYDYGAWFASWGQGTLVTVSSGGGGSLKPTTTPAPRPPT
Chain of VH2VL1-CD8ATD-CD137CSD-CD3zSSD fusion (chain, as listed by the source): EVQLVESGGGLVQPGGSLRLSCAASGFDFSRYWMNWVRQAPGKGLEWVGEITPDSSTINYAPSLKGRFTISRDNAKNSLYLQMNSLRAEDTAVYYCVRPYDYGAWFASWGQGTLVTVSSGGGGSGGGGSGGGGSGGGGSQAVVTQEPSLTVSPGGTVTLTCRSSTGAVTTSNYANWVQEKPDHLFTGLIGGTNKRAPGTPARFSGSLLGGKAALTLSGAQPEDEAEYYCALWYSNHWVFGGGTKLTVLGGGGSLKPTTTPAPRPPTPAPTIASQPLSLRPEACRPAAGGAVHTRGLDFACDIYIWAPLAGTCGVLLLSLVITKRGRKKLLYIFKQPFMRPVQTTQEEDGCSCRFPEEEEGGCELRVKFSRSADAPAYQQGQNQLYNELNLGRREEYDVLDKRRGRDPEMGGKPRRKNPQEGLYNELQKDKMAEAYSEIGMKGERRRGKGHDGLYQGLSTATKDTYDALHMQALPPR
Chain of VH1VL1-CD8ATD-CD137CSD-CD3zSSD fusion (chain, as listed by the source): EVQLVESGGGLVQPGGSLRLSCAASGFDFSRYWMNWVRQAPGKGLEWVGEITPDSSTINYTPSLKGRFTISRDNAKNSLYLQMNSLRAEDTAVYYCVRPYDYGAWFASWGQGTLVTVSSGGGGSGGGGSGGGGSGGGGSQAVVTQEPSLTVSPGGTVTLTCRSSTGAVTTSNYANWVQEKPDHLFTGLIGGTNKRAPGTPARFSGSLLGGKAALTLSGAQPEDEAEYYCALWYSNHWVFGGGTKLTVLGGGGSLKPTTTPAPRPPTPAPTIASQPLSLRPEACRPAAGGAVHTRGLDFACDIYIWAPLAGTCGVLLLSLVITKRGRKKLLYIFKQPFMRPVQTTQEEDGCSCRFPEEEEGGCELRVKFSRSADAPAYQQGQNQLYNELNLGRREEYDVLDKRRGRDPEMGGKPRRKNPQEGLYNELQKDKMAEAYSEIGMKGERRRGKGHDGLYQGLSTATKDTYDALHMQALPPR
Chain of VH3VL1-CD8ATD-CD137CSD-CD3zSSD fusion (chain, as listed by the source): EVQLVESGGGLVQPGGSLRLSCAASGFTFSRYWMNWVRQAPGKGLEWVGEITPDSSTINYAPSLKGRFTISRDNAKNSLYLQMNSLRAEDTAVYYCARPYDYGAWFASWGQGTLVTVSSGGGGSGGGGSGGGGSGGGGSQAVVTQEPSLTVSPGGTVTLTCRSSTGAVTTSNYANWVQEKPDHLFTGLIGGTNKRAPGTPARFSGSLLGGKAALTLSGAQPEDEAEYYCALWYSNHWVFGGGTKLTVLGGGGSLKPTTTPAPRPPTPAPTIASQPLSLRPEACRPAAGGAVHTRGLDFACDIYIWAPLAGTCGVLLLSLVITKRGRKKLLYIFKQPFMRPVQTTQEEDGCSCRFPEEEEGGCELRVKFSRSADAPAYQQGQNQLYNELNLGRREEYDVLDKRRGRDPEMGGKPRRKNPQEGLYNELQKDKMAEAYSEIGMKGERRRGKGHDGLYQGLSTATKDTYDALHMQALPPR

DP47 P329G LALA (antibody) showed an EC50 printed in the drawn table (row 'VH2 x VL1') for the Jurkat NFAT reporter assay with WSUDLCL2 cells and untargeted DP47 P329G LALA; the curve stays at background (about 60 to 90 RLU/s) [1] of 0.293 nM and an EC50 printed in the drawn table (row 'VL1 x VH 3') for the Jurkat NFAT reporter assay with WSUDLCL2 cells and untargeted DP47 P329G LALA; the curve stays near background (about 60 to 110 RLU/s) [2] of 7.42 nM.
With “anti-CD20 (GA101) D246A P329G IgG1 (antibody)” the EC50 of Jurkat NFAT luciferase reporter activation (RLU/s), WSUDLCL2 target cells 5:1; drawn table, row 'VH1 x VL1'; x axis 'GA101 D246A P329G [nM]' [3] was 0.00814 nM, the EC50 of Jurkat NFAT luciferase reporter activation (RLU/s), WSUDLCL2 target cells 5:1; drawn table, row 'VH2 x VL1'; x axis 'GA101 D246A P329G [nM]' [4] was 0.0104 nM and the EC50 of Jurkat NFAT luciferase reporter activation (RLU/s), WSUDLCL2 target cells 5:1; drawn table, row 'VH3 x VL1'; x axis 'GA101 D246A P329G [nM]' [5] was 0.00582 nM. The EC50 of Jurkat NFAT luciferase reporter activation (RLU/s), WSUDLCL2 target cells 5:1; drawn table, row 'VL1 x VH 3'; x axis 'GA101 D246A P329G [nM]' [6] was 0.00619 nM.
For “anti-CD20 (GA101) P329G LALA IgG1 (antibody)”, the EC50 of Jurkat NFAT luciferase reporter activation (RLU/s), WSUDLCL2 target cells 5:1; drawn table, row 'VH1 x VL1' [7] was 8.1 pM, the EC50 of Jurkat NFAT luciferase reporter activation (RLU/s), WSUDLCL2 target cells 5:1; drawn table, row 'VH2 x VL1' [8] was 6.93 pM and the EC50 of Jurkat NFAT luciferase reporter activation (RLU/s), WSUDLCL2 target cells 5:1; drawn table, row 'VH3 x VL1' [9] was 7.57 pM. For the same substance, the EC50 of Jurkat NFAT luciferase reporter activation (RLU/s), WSUDLCL2 target cells 5:1; drawn table, row 'VL1 x VH 3' [10] was 6.58 pM.
